Laboratory results published in article PMC8609364, “A Selective Tether Recruits Activated Response Regulator CheB to Its Chemoreceptor Substrate” (mBio, 2021).
Read-outs that look alike come from different tables or passages of the source. Ends that are not written are not given here.

Key:
[1] = test system: CheB; conditions: position 132; ref [11]; cited from earlier work
[2] = molecular target: unphosphorylated CheB; conditions: equilibrium dialysis, free pentapeptide, ref [21], read-out: equilibrium dissociation constant; cited from earlier work
[3] = molecular target: unphosphorylated CheB; conditions: isothermal titration calorimetry, free pentapeptide, ref [21], read-out: equilibrium dissociation constant; cited from earlier work
Experimental: (§1) We measured binding of the low-activity, unphosphorylated form of CheB to the NWETF pentapeptide tethered to the sensor surface via a linker or in its native position at the carboxyl terminus of Tar4E or Tar4Q ([23]). Equilibrium dissociation constants were essentially the same for all conditions, 190 ± 85 μM for pentapeptide alone, and 230 ± 70 and 160 ± 30 for the pentapeptide on Tar4E or Tar4Q, respectively (Table 1). Within the error of the measurements, these values corresponded to those previously determined for free pentapeptide binding to unphosphorylated CheB by isothermal titration c ...

[4] = molecular target: CheB; experiment: Binding of CheB to NWETF pentapeptide tethered to the sensor surface via a linker (biolayer interferometry); design: species or system E. coli; conditions: BLI, low-activity, unphosphorylated CheB, read-out: Equilibrium dissociation constant, pentapeptide alone
Experimental: as §1, with “1).” for “1). Within the error of the measurements, these values corresponded to those previously determined for free pentapeptide binding to unphosphorylated CheB by isothermal titration c ...”
Kinetics of CheB association and dissociation with Nanodisc-embedded Tar biotinylated at L378C were determined using biolayer interferometry ([22], [23]) as measured by a BLItz instrument (ForteBio, Menlo Park, CA, USA) and described in reference. Representative time course experiments are shown in Fig. S1 in the supplemental material. Measurements for CheB-P* and CheB-P*-I were in 50 mM Tris-HCl (pH 7.5), 10% (wt/vol) glycerol, 5 mM MgCl2, 50 mM KCl, and 2% (wt/vol) bovine serum albumin (BSA). Measurements for CheB and CheBc were in the same solution plus 2 mM dithiothreitol (DTT).
Using BLItz software, response curves were fit globally to a 1:1 binding model to yield apparent association rate constants (kon) and dissociation rate constants (koff). […]

[5] = molecular target: CheB; conditions: low-activity, unphosphorylated CheB from E. coli; ref [21]; read-out: dissociation constants; cited from earlier work
Description: (§2) CheB is a two-domain protein, with an amino-terminal response regulator domain attached by a linker sequence to a carboxyl-terminal catalytic domain ([17]) (Fig. 1B). Phosphorylation of the response regulator domain by the chemotaxis histidine kinase creates a high-activity form of the methylesterase ([6]), shifting interaction between the two domains to an “open” conformation that relieves occlusion of the active site by the regulatory amino-terminal domain ([18], [19]). The enzyme binds its substrate chemoreceptor side chains with the surfaces surrounding its active site ([20]). In contrast, ...

[6] = molecular target: Tar4E L378C, E. coli aspartate chemoreceptor Tar, all-glutamyl form with carboxyl-terminal pentapeptide, homodimer in Nanodiscs (E. coli) (UniProt P07017); experiment: BLI; BLItz; biotinylated Tar homodimers in Nanodiscs held on an avidin sensor tip, CheB-P* or CheB-P*-I in solution; 50 mM Tris-HCl pH 7.5, 10% glycerol, 5 mM MgCl2, 50 mM KCl, 2% BSA, no DTT; global fit, apparent rate constants, KD calculated from kon and koff
[7] = molecular target: Tar4Q L378C, E. coli aspartate chemoreceptor Tar, all-glutaminyl form with carboxyl-terminal pentapeptide, homodimer in Nanodiscs (E. coli) (UniProt P07017); experiment: as above
[8] = molecular target: Tar4EΔpp-6H L378C, E. coli Tar lacking the carboxyl-terminal pentapeptide, all-glutamyl form, homodimer in Nanodiscs (E. coli) (UniProt P07017); experiment: as above
[9] = molecular target: Tar4QΔpp-6H L378C, E. coli Tar lacking the carboxyl-terminal pentapeptide, all-glutaminyl form, homodimer in Nanodiscs (E. coli) (UniProt P07017); experiment: as above
[10] = test system: CheB binding to pentapeptide; design: method as in PMID 11435446; conditions: ref [11]; cited from earlier work
[11] = low-activity, unphosphorylated CheB; ref [16]; read-out: dissociation constant; cited from earlier work
Description: as §2

[12] = molecular target: T1, methylesterase/deamidase CheB from E. coli, low-activity, unphosphorylated form (E. coli, UniProt P07330 1-349); experiment: BLI; BLItz; NWETF pentapeptide tethered to the sensor surface via a linker, CheB in solution; apparent rate constants, KD calculated from kon and koff; conditions: both partners purified
T1 construct: CheB methylesterase/deamidase of E. coli, unphosphorylated, from plasmid pCW/cheB; measured with 2 mM DTT in the buffer; also called low-activity CheB; unmodified CheB; source: E. coli K-12 RP3098 with pCW/cheB, purified
T1 sequence (looked up): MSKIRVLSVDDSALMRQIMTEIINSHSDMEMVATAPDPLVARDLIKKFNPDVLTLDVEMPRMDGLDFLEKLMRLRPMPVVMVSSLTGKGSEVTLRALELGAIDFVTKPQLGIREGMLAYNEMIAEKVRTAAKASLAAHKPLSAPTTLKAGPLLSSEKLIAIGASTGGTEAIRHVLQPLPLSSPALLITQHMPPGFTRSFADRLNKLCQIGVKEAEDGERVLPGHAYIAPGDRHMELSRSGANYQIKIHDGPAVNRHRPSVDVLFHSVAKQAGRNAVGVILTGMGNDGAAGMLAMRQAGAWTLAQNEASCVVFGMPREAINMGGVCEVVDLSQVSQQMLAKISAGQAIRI

In the case of NWETF [NWETF], the “protection of intact CheB from limited proteolysis” value [1] is given as “protected intact CheB from limited proteolysis at position 132”, the Kd [2] is given as 130 µM and the Kd [3] is given as 160 µM. The Kd [4] was 190 ± 85 µM and the Kd [5] was 130 to 160 µM.

In the case of “CheB-P*-I, enzymatically inactive phosphorylation mimic, Salmonella CheB D56C/S164A/C207S/C309S modified with thiophosphate (from UniProt P04042 1-349) (enzyme)”, the fold reduction of KA against CheB-P* [6] is reported as 2.5 fold and the fold reduction of KA against CheB-P* [7] is reported as 2.5 fold.

“CheB-P*, phosphorylation mimic of Salmonella CheB D56C/C207S/C309S modified with thiophosphate (from UniProt P04042 1-349) (enzyme)” gave a Kd [8] of 200 µM, a Kd [9] of 200 µM and a Kd [6] of 13 µM. For the same molecule, the dwell time (1/koff) [6] was 3 s, the Kd [7] was 13 µM and the dwell time (1/koff) [7] was 3 s.

In the case of “peptide from CheB residues 130 through 140 (AAKASLAAHKP; UniProt P07330 130-140, looked up, fragment)”, the “reduction of binding of intact enzyme to pentapeptide” value [10] is listed as “reduced binding of intact enzyme to pentapeptide”.

B1: CheB from Pseudomonas aeruginosa (protein, UniProt O87125 1-368, looked up)
Protein-glutamate …: MAVKVLVVDDSGFFRRRVSEILSADGQIQVVGTGTNGREAIEQALALRPDVITMDYEMPLMDGITAVRNIMQRCPTPVLMFSSLTHEGARVTLDALDAGAVDYLPKNFEDISRNPDKVRQLLCEKVLTIARSNRRSISLPPLPSATSSSHAPASSSSVGASARVGAGASPAPASTSAAPKRKAYRLVAIGTSTGGPVALQRVLTQLPANFPAPLVLIQHMPAAFTKAFAERLDKLCRINVKEAEDGDILRPGLALLAPGGKQMMVDGRGTVRILPGDERLNYKPCVDVTFGSAAKAYNDKVLAVVLTGMGADGREGARLLKQGGSQVWAQDEASCVIYGMPMAVVKANLADAVYGLDDIGRHLVEACQ
In the case of B1, the Kd [11] is given as ~90 µM.

B2: NWETF pentapeptide tethered to the sensor surface via a linker (peptide)
peptide: NWETF
modifications: also: tethered to sensor surface via a linker (not described)
notes: carboxyl-terminal pentapeptide of the E. coli chemoreceptor Tar; also called pentapeptide alone
B2 showed a Kd [12] of 190 µM.
